From patent publication USRE38424E1 (The United States of America as represented by the …, priority 1994, dated 2004)
Where two headings read alike, the source gives them in different places.

Settings: for Duration of Neutropenia in Neutropenic Cycles, Median / Duration of Neutropenia in Neutropenic Cycles, Range / Nadirs in Neutropenic Cycles, Median / Nadirs in Neutropenic Cycles, Range / Duration of Neutropenia in Neutropenic Cycles, Mean / Nadirs in Neutropenic Cycles, Mean / Day of Onset of Neutropenia in Neutropenic Cycles, Median / Day of Onset of Neutropenia in Neutropenic Cycles, Range / Day of Onset of Neutropenia in Neutropenic Cycles, Mean / Nadir (all cycles), Median / Nadir (all cycles), Range / Nadir (all cycles), Mean: taxol 250 mg/m^2/21 days
Description: A total of 47 patients were included in this study. All patients had recurrent advanced stage epithelial ovarian cancer confirmed on histologic review at the Laboratory of Pathology, National Cancer Institute (NCI). Borderline, mixed, and germ cell histologies were excluded.
Pretreatment evaluation consisted of a physical examination, laboratory studies with CA-125, radiographic evaluation by CT scan, baseline electromyogram with nerve conduction velocity studies (EMG/NCV), creatinine clearance, chest radiograph, and EKG. On-study staging was completed within two weeks of starting therapy. Physical examination and laboratory evaluations were repeated with every cycle, except for CBC which was evaluated twice weekly. Patients underwent restaging every two cycles (i.e., every 6 weeks), which included the repetition of any radiographic studies that were abnormal upon entry. EMG/NCV studies were repeated as indicated to determine the presence of any progressive neurologic toxicity.
The G-CSF was supplied to the Division of Cancer Treatment by Amgen, Inc. (Thousand Oaks, Calif.). This G-CSF administration continued until the absolute granulocyte count of the patient was greater than 1500/μl for two consecutive days after the nadir (i.e., the total count for the two days was at least 3000/μl ) or until the total white blood cell count was greater than 30,000/μl. Patients with responding disease or stable disease continued on the study and were reevaluated at two cycle intervals.
Patients manifesting second or third degree heart block had remaining cycles given in the intensive care unit with appropriate interventions. Antiemetics were given as needed.
More specifically, this was undertaken by increasing the dose of G-CSF administered on the next treatment cycle.
The particulars pertaining to the flexible G-CSF dosage regimen are as follows. […] The dose of G-CSF was reduced by 5 μg/kg/day if severe bone pain occurred at these higher G-CSF dosage levels, i.e., at levels greater than or equal to 10 μg/kg/day.

B1: G-CSF: granulocyte colony-stimulating factor, available from Amgen, Inc. (protein, UniProt P09919 31-207, looked up)
Granulocyte …: TPLGPASSLPQSFLLKCLEQVRKIQGDGAALQEKLVSECATYKLCHPEELVLLGHSLGIPWAPLSSCPSQALQLAGCLSQLHSGLFLYQGLLQALEGISPELGPTLDTLQLDVADFATTIWQQMEELGMAPALQPTQGAMPAFASAFQRRAGGVLVASHLQSFLEVSYRVLRHLAQP
- Duration of Neutropenia in Neutropenic Cycles, Median (10 μg/kg G-CSF, 49 cycles): 1 days
- Duration of Neutropenia in Neutropenic Cycles, Range (10 μg/kg G-CSF, 49 cycles): 1 to 4 days
- Nadirs in Neutropenic Cycles, Median (10 μg/kg G-CSF, 49 cycles): 162
- Nadirs in Neutropenic Cycles, Range (10 μg/kg G-CSF, 49 cycles): 0-494
- Duration of Neutropenia in Neutropenic Cycles, Mean (10 μg/kg G-CSF, 49 cycles, ± 0.7 on wrapped line): 1 days
- Nadirs in Neutropenic Cycles, Mean (10 μg/kg G-CSF, 49 cycles, ± 158 on wrapped line): 178
- Day of Onset of Neutropenia in Neutropenic Cycles, Median (10 μg/kg G-CSF, 54 cycles): 7 days
- Day of Onset of Neutropenia in Neutropenic Cycles, Range (10 μg/kg G-CSF, 54 cycles): 5 to 9 days
- Day of Onset of Neutropenia in Neutropenic Cycles, Mean (10 μg/kg G-CSF, 54 cycles, ± 0.8 on wrapped line): 7 days
- Nadir (all cycles), Median (10 μg/kg G-CSF, 130 cycles): 865
- Nadir (all cycles), Range (10 μg/kg G-CSF, 130 cycles): 0-6232
- Nadir (all cycles), Mean (10 μg/kg G-CSF, 130 cycles, ± 1636 on wrapped line): 1341
- Day of Onset of Neutropenia in Neutropenic Cycles, Median (20 μg/kg G-CSF, 20 cycles): 7 days
- Day of Onset of Neutropenia in Neutropenic Cycles, Range (20 μg/kg G-CSF, 20 cycles): 6 to 11 days
- Duration of Neutropenia in Neutropenic Cycles, Median (20 μg/kg G-CSF, 20 cycles): 1 days
- Duration of Neutropenia in Neutropenic Cycles, Range (20 μg/kg G-CSF, 20 cycles): 1 to 5 days
- Nadirs in Neutropenic Cycles, Median (20 μg/kg G-CSF, 20 cycles): 191
- Nadirs in Neutropenic Cycles, Range (20 μg/kg G-CSF, 20 cycles): 0-493
- Duration of Neutropenia in Neutropenic Cycles, Mean (20 μg/kg G-CSF, 20 cycles, ± 0.9 on wrapped line): 1 days
- Day of Onset of Neutropenia in Neutropenic Cycles, Mean (20 μg/kg G-CSF, 20 cycles, ± 1.1 on wrapped line): 7 days
- Nadirs in Neutropenic Cycles, Mean (20 μg/kg G-CSF, 20 cycles, ± 155 on wrapped line): 200
- Nadir (all cycles), Median (20 μg/kg G-CSF, 42 cycles): 626
- Nadir (all cycles), Range (20 μg/kg G-CSF, 42 cycles): 0-6536
- Nadir (all cycles), Mean (20 μg/kg G-CSF, 42 cycles, ± 1430 on wrapped line): 1204
- Patients in whom the G-CSF dose is poorly tolerated (in vivo): about 5%
- Patients whose G-CSF doses were modified for bone pain (phase II): two
- Bone Pain, G-CSF DR (dose reduction) (phase II, 47 patients): 3 (6) No. (%)
